Reference: IntAct's records for PubMed 29892012

B1: Abl interactor 2 (Homo sapiens), Q9NYB9 (parent)
chain: MAELQMLLEEEIPGGRRALFDSYTNLERVADYCENNYIQSADKQRALEETKAYTTQSLASVAYLINTLANNVLQMLDIQASQLRRMESSINHISQTVDIHKEKVARREIGILTTNKNTSRTHKIIAPANLERPVRYIRKPIDYTILDDIGHGVKWLLRFKVSTQNMKMGGLPRTTPPTQKPPSPPMSGKGTLGRHSPYRTLEPVRPPVVPNDYVPSPTRNMAPSQQSPVRTASVNQRNRTYSSSGSSGGSHPSSRSSSRENSGSGSVGVPIAVPTPSPPSVFPAPAGSAGTPPLPATSASAPAPLVPATVPSSTAPNAAAGGAPNLADGFTSPTPPVVSSTPPTGHPVQFYSMNRPASRHTPPTIGGSLPYRRPPSITSQTSLQNQMNGGPFYSQNPVSDTPPPPPPVEEPVFDESPPPPPPPEDYEEEEAAVVEYSDPYAEEDPPWAPRSYLEKVVAIYDYTKDKEDELSFQEGAIIYVIKKNDDGWYEGVMNGVTGLFPGNYVESIMHYSE
partner: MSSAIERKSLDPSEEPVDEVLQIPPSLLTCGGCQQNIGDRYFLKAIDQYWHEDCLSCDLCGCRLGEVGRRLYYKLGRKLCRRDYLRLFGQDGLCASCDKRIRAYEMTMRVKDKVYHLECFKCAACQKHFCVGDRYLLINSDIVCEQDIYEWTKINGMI
B2: Abl interactor 2 (Homo sapiens), Q9NYB9 (parent)
chain: B1 chain
partner: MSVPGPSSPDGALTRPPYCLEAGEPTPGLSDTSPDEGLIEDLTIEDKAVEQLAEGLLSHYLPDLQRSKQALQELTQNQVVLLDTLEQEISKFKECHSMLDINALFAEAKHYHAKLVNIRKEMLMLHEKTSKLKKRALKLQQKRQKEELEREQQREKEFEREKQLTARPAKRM
B3: Late cornified envelope protein 1B (Homo sapiens), Q5T7P3 (parent)
chain: MSCQQNQQQCQPPPKCIPKCPPKCLTPRCPPKCPPKCPPVSSCCSVSSGGCCGSSSGGSCGSSSGGCCSSGGGGCCLSHHRRRRSHCHRPQSSGCCSQPSGGSSCCGGGSGQHSGGCC
partner: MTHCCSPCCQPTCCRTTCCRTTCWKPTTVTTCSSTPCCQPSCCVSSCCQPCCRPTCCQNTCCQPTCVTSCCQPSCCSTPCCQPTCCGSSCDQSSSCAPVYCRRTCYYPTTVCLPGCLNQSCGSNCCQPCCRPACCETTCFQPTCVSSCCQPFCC
B4: Rho guanine nucleotide exchange factor 3 (Homo sapiens), Q9NR81 (parent)
chain: MVAKDYPFYLTVKRANCSLELPPASGPAKDAEEPSNKRVKPLSRVTSLANLIPPVKATPLKRFSQTLQRSISFRSESRPDILAPRPWSRNAAPSSTKRRDSKLWSETFDVCVNQMLTSKEIKRQEAIFELSQGEEDLIEDLKLAKKAYHDPMLKLSIMTEQELNQIFGTLDSLIPLHEELLSQLRDVRKPDGSTEHVGPILVGWLPCLSSYDSYCSNQVAAKALLDHKKQDHRVQDFLQRCLESPFSRKLDLWNFLDIPRSRLVKYPLLLREILRHTPNDNPDQQHLEEAINIIQGIVAEINTKTGESECRYYKERLLYLEEGQKDSLIDSSRVLCCHGELKNNRGVKLHVFLFQEVLVITRAVTHNEQLCYQLYRQPIPVKDLLLEDLQDGEVRLGGSLRGAFSNNERIKNFFRVSFKNGSQSQTHSLQANDTFNKQQWLNCIRQAKETVLCAAGQAGVLDSEGSFLNPTTGSRELQGETKLEQMDQSDSESDCSMDTSEVSLDCERMEQTDSSCGNSRHGESNV
partner: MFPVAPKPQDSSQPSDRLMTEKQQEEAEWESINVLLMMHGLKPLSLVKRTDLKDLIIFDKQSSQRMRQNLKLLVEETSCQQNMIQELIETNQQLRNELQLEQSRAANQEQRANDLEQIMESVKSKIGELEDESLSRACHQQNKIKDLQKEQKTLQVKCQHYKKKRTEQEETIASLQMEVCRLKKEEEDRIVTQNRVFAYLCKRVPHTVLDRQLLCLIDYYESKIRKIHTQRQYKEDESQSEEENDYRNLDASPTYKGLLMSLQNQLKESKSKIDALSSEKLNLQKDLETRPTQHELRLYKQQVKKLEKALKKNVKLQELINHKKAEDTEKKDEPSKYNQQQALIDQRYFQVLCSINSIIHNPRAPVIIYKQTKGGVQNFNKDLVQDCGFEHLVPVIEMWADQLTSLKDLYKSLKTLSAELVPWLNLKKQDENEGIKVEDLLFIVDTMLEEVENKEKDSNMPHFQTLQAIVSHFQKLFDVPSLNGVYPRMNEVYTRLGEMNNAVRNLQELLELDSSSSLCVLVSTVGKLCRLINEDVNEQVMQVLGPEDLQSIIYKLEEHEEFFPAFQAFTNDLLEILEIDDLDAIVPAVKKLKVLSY
B5: Coiled-coil domain-containing protein 14 (Homo sapiens), Q49A88 (parent)
chain: MKRGIRRDPFRKRKLGGRAKKVREPTAVNSFYREASLPSVWASLRRREMVRSGARPGQVLSSGRHTGPAKLTNGKKATYLRKIPRFNADSGYSIHSDSESQAETVHGLDGCASLLRDILRNEDSGSETAYLENRSNSRPLESKRYGSKKKRHEKHTIPLVVQKETSSSDNKKQIPNEASARSERDTSDLEQNWSLQDHYRMYSPIIYQALCEHVQTQMSLMNDLTSKNIPNGIPAVPCHAPSHSESQATPHSSYGLCTSTPVWSLQRPPCPPKVHSEVQTDGNSQFASQGKTVSATCTDVLRNSFNTSPGVPCSLPKTDISAIPTLQQLGLVNGILPQQGIHKETDLLKCIQTYLSLFRSHGKETHLDSQTHRSPTQSQPAFLATNEEKCAREQIREATSERKDLNIHVRDTKTVKDVQKAKNVNKTAEKVRIIKYLLGELKALVAEQEDSEIQRLITEMEACISVLPTVSGNTDIQVEIALAMQPLRSENAQLRRQLRILNQQLREQQKTQKPSGAVDCNLELFSLQSLNMSLQNQLEESLKSQELLQSKNEELLKVIENQKDENKKFSSIFKDKDQTILENKQQYDIEITRIKIELEEALVNVKSSQFKLETAEKENQILGITLRQRDAEVTRLRELTRTLQTSMAKLLSDLSVDSARCKPGNNLTKSLLNIHDKQLQHDPAPAHTSIMSYLNKLETNYSFTHSEPLSTIKNEETIEPDKTYENVLSSRGPQNSNTRGMEEASAPGIISALSKQDSDEGSETMALIEDEHNLDNTIYIPFARSTPEKKSPLSKRLSPQPQIRAATTQLVSNSGLAVSGKENKLCTPVICSSSTKEAEDAPEKLSRASDMKDTQLLKKIKEAIGKIPAATKEPEEQTACHGPSGCLSNSLQVKGNTVCDGSVFTSDLMSDWSISSFSTFTSRDEQDFRNGLAALDANIARLQKSLRTGLLEK
partner: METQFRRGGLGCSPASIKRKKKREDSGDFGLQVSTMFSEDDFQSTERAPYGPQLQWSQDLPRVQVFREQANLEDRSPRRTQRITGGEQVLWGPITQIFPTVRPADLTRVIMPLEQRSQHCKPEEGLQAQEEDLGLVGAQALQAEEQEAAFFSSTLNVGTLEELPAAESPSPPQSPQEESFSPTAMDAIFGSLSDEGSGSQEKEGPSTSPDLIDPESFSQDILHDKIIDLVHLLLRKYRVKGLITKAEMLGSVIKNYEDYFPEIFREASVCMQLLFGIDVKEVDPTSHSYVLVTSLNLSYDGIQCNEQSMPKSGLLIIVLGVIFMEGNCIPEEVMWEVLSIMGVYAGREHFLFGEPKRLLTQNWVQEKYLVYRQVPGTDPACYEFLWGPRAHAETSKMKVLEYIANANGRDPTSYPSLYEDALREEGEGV

Variants of: B1
Settings: with rbtn2_human LMO2, P25791

Variant	effect of a mutation on the interaction
R373C	with no effect

Variants of: B2
Settings: with bl1s6_human BLOC1S6, Q9UL45

Variant	effect of a mutation on the interaction
R373C	with no effect

Variants of: B2
Settings: with bl1s6_human BLOC1S6, Q9UL45
Remark: another data set of the same source

Variant	effect of a mutation on the interaction
E202K	with no effect

Variants of: B3
Settings: with kra94_human KRTAP9-4, Q9BYQ2

Variant	effect of a mutation on the interaction
C16Y	disrupting interaction strength

Variants of: B4
Settings: with cep70_human CEP70, Q8NHQ1

Variant	effect of a mutation on the interaction
P34S	with no effect

Variants of: B5
Settings: with magab_human MAGEA11, P43364

Variant	effect of a mutation on the interaction
I476T	with no effect
